US20250352661A1 (MYTHIC THERAPEUTICS, published 2025)
Where a chain is given by its changes, count along the chain named. Numbers in names are those of the source.

How the values were obtained:
[1] = target: T1, LRRC15 on the surface of LRRC15+ cells (SAOS-2, U87MG) (UniProt Q8TF66 22-581, limits assumed); assay: cell-based or functional assay
T1 sequence (looked up): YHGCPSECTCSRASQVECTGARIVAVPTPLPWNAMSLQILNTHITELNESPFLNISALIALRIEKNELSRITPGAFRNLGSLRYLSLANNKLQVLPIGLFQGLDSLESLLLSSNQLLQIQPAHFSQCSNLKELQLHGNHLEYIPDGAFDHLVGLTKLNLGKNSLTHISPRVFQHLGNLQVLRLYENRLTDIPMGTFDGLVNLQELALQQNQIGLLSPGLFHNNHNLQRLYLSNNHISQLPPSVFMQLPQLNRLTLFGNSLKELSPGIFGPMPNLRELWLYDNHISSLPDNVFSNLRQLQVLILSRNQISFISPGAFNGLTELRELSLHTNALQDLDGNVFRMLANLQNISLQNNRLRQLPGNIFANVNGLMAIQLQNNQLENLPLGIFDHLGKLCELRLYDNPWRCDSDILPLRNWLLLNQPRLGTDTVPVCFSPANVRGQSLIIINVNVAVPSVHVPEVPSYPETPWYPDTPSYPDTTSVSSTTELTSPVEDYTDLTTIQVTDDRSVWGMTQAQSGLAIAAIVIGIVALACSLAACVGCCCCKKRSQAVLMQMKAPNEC

[2] = target: T2, Human LRRC15 Protein, His Tag (Acro Biosystems) (human, UniProt Q8TF66 22-538, limits assumed); assay: BLI; dissociation pH 7.4 black, pH 5.4 grey [1/2); D00006 FIG. 1E (1/2]
T2 sequence (looked up): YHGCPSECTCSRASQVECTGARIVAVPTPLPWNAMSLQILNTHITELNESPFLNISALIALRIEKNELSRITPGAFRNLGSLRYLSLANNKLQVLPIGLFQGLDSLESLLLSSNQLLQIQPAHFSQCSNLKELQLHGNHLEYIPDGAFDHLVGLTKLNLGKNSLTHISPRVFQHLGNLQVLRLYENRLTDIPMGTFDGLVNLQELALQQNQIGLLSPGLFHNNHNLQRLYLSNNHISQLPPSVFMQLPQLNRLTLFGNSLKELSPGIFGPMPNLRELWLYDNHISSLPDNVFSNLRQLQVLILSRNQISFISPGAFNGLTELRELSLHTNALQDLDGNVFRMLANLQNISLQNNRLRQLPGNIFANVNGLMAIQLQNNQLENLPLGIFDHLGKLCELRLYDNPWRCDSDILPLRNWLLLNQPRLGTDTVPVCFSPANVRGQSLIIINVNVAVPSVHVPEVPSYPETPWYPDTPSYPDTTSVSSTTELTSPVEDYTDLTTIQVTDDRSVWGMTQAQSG
Description: (§1) For each individual plot, antigen binding proteins were captured on anti-human Fc biosensors and associated with LRRC15 at pH 7.4. Dissociation was at pH 7.4 (black) or pH 5.4 (grey). Major X-axis ticks=100 seconds, with left dashed vertical line=0 seconds. Major Y-axis ticks=0.5 nm and octet plots are shown MYT5712 and MYT6080-MYT6121.
(§2) Multiple LRRC15-binding monoclonal antibodies have been described in the literature and can be used as a template for engineering pH-dependent binding. We selected discovery RabMAb clone 15G7 (rabbit VH SEQ ID NO: 378, rabbit VL SEQ ID NO: 451; humanized VH SEQ ID NO: 382, humanized VL SEQ ID NO: 455) as a LRRC15-binding monoclonal antibody for pH-engineering via histidine scanning. […] To generate pH-dependent sequence variants, individual amino acid residues within the heavy chain CDRs were systematically substituted with a histidine (or alanine if H was already present in a given position; e.g., MYT6099), one at a time (rabbit, MYT6080-6121). Desirable mutations were transferred to a humanized framework (humanized, MYT 8387-8411). After allowing for four days of protein expression, cell culture supernatants were collected, quantified by SDS-PAGE analysis, and the pH dependence of the variant was evaluated using biolayer interferometry (BLI) on an Octet RED 96e instrument. Briefly, cell culture supernatants were diluted based on qualitative expression level of the variant determined by visual examination of SDS-PAGE gels, 5 μL of cell culture supernatant was diluted into 195 μL of 1×PBST, pH 7.4 for high expressors, 25 μL of cell culture supernatant was diluted into 175 μL of 1×PBST, pH 7.4 for medium expressors and 100 μL of cell culture supernatant was diluted into 100 μL of 1×PBST, pH 7.4 for low expressors for loading onto the sensor tips.

[3] = target: T3, Human LRRC15 Protein, His Tag (Acro Biosystems) (human, UniProt Q8TF66 22-538, limits assumed); assay: BLI; dissociation pH 7.4 black, pH 5.4 grey [D00008 FIG. 1F]
T3 construct: Bought protein with His tag
T3 sequence (looked up): T2 sequence (looked up)
Description: as §1, §2

B1: MYT3315 (antibody, V domains shown)
VH: EVQLVESGGGLVQPGGSLRLSCAVSGFSLTSYGVHWVRQATGKGLEWLGVIWAGGSTNYNSALMSRLTISKENAKSSVYLQMNSLRAGDTAMYYCATHMITEDYYGMDYWGQGTTVTVSS
VL: DIVMTQSPDSLAVSLGERATINCKSSQSLLNSRTRKNYLAWYQQKPGQSPKLLIYWASTRHSGVPDRFSGSGSGTDFTLTISSLQAEDVAVYYCKQSYNLPTFGGGTKVEIK
Internalization in U87MG cells (10 nM, 24 hours), FOB = fold over background (IgG control) [1]: 2.57 fold over background (IgG control)
Internalization in U87MG cells (10 nM, 24 hours), FOS = fold over samrotamab [1]: 1.83 fold over samrotamab

B2: MYT8415 (antibody, V domains shown)
VH: EVQLVESGGGLVQPGGSLRLSCTASGLDFRRTNYICWVRQAPGKGLEWVGCIYIADVVHYYASWAKGRFTFSRDTSKNTVYLQMNSLRAEDTAVYYCARGADGGFVYGMDLWGQGTLVTVSS
VL: EIVMTQSPSTLSASVGDRVIITCQASQSIGNYLSWYQQKPGKAPKRLIYSASTLPSGVPSRFSGSGSGAEFTLTISSLQPDDFATYYCQNNHWLAGYGHPFGQGTKLTVL
Internalization in U87MG cells (10 nM, 24 hours), FOB = fold over background (IgG control) [1]: 2.53 fold over background (IgG control)
Internalization in U87MG cells (10 nM, 24 hours), FOS = fold over samrotamab [1]: 1.79 fold over samrotamab

B3: MYT9776 (antibody, V domains shown)
VH: EVQLVESGGGLVQPGGSLRLSCTASGFSFSGHYWICWVRQAPGKGLEWVGCIHGGSHDITYYASWAKGRFTISRDTSKNTVYLQKTSLRAEDTAVYYCASDTSYTAYGNFYFNLWGQGTLVTVSS
VL: EIVMTQSPSPLSASVGDRVIITCQSSQSVLNNNWLAWYQQKPGKAPKLLIYDASSLASGVPSRFSGSGSGAEFTLTISSLQPDDFATYYCQGEFSCGSADCNAFGQGTKLEIK
Internalization in U87MG cells (10 nM, 24 hours), FOB = fold over background (IgG control) [1]: 2.69 fold over background (IgG control)
Internalization in U87MG cells (10 nM, 24 hours), FOS = fold over samrotamab [1]: 1.97 fold over samrotamab

B4: MYT5712 (antibody, V domains shown)
VH: QEQLEESGGDLVKPGASLTLTCTASGLDFRRTNYICWVRQAPGKGLEWIGCIYIADVVHYYASWAKGRFTFSKTSSTTVTLQMTSLTAADTATYFCARGADGGFVYGMDLWGPGTLVTVSS
VL: DVVMTQTPASVSEPVGGTVTIKCQASQSIGNYLSWYQQKPGQRPKRLIYSASTLPSGVPSRFKGAGSGTEFTLTISDLESADAATYYCQNNYWLAGYGHPFGGGTEVVVK
notes: chimeric antibody (rabbit variable domains, human constant regions); also called 15G7; chimeric 15G7 RabMAb
binding result [2]: binds

B5: MYT6084 (antibody, V domains shown)
VH: B4 VH with R30H
VL: B4 VL
notes: chimeric rabbit 15G7 variant (rabbit variable domains, human constant regions); also called 15G7 VH R30H
binding result [2]: binds

B6: MYT6085 (antibody, V domains shown)
VH: B4 VH with R31H
VL: B4 VL
notes: chimeric rabbit 15G7 variant (rabbit variable domains, human constant regions); also called 15G7 VH R31H
binding result [2]: binds

B7: MYT6086 (antibody, V domains shown)
VH: B4 VH with T32H
VL: B4 VL
notes: chimeric rabbit 15G7 variant (rabbit variable domains, human constant regions); also called 15G7 VH T32H
binding result [2]: binds

B8: MYT6087 (antibody, V domains shown)
VH: B4 VH with N33H
VL: B4 VL
notes: chimeric rabbit 15G7 variant (rabbit variable domains, human constant regions); also called 15G7 VH N33H
binding result [2]: binds

B9: MYT6088 (antibody, V domains shown)
VH: B4 VH with Y34H
VL: B4 VL
notes: chimeric rabbit 15G7 variant (rabbit variable domains, human constant regions); also called 15G7 VH Y34H
binding result [2]: binds

B10: MYT6089 (antibody, V domains shown)
VH: B4 VH with I35H
VL: B4 VL
notes: chimeric rabbit 15G7 variant (rabbit variable domains, human constant regions); also called 15G7 VH I35H
binding result [2]: binds

B11: MYT6092 (antibody, V domains shown)
VH: B4 VH with I52H
VL: B4 VL
notes: chimeric rabbit 15G7 variant (rabbit variable domains, human constant regions); also called 15G7 VH I52H
binding result [2]: binds

B12: MYT6093 (antibody, V domains shown)
VH: B4 VH with Y53H
VL: B4 VL
notes: chimeric rabbit 15G7 variant (rabbit variable domains, human constant regions); also called 15G7 VH Y53H
binding result [2]: binds

B13: MYT6094 (antibody, V domains shown)
VH: B4 VH with I54H
VL: B4 VL
notes: chimeric rabbit 15G7 variant (rabbit variable domains, human constant regions); also called 15G7 VH I54H
binding result [2]: binds

B14: MYT6095 (antibody, V domains shown)
VH: B4 VH with A55H
VL: B4 VL
notes: chimeric rabbit 15G7 variant (rabbit variable domains, human constant regions); also called 15G7 VH A55H
binding result [2]: binds

B15: MYT6141 (antibody, V domains shown)
VH: B4 VH
VL: B4 VL with N90H
notes: rabbit 15G7 VL N90H; chimeric, human constant regions
binding result [3]: no binding (tested: 50 nM LRRC15)

B16: MYT6142 (antibody, V domains shown)
VH: B4 VH
VL: B4 VL with N91H
notes: rabbit 15G7 VL N91H; chimeric, human constant regions
binding result [3]: binds

B17: MYT6143 (antibody, V domains shown)
VH: B4 VH
VL: B4 VL with Y92H
notes: rabbit 15G7 VL Y92H; chimeric, human constant regions
binding result [3]: binds

B18: MYT6144 (antibody, V domains shown)
VH: B4 VH
VL: B4 VL with W93H
notes: rabbit 15G7 VL W93H; chimeric, human constant regions
binding result [3]: binds

B19: MYT6145 (antibody, V domains shown)
VH: B4 VH
VL: B4 VL with L94H
notes: rabbit 15G7 VL L94H; chimeric, human constant regions
binding result [3]: no binding (tested: 50 nM LRRC15)

B20: MYT6146 (antibody, V domains shown)
VH: B4 VH
VL: B4 VL with A95H
notes: rabbit 15G7 VL A95H; chimeric, human constant regions
binding result [3]: binds

B21: MYT6147 (antibody, V domains shown)
VH: B4 VH
VL: B4 VL with G96H
notes: rabbit 15G7 VL G96H; chimeric, human constant regions
binding result [3]: binds

B22: MYT6148 (antibody, V domains shown)
VH: B4 VH
VL: B4 VL with Y97H
notes: rabbit 15G7 VL Y97H; chimeric, human constant regions
binding result [3]: binds

B23: MYT6149 (antibody, V domains shown)
VH: B4 VH
VL: B4 VL with G98H
notes: rabbit 15G7 VL G98H; chimeric, human constant regions
binding result [3]: binds

B24: MYT6150 (antibody, V domains shown)
VH: B4 VH
VL: B4 VL with H99A
notes: rabbit 15G7 VL H99A; chimeric, human constant regions
binding result [3]: binds

B25: MYT6151 (antibody, V domains shown)
VH: B4 VH
VL: B4 VL with P100H
notes: rabbit 15G7 VL P100H; chimeric, human constant regions
binding result [3]: binds
